Changes are numbered by the printed parent chain.
B1: SD22 monoclonal antibody (human IgG1) (antibody, V domains shown)
VH: QVQLVESGGGVVQPGRSLRLSCAASGFTFSGFGMHWVRQAPGKGLEWVALISYDGSDTYYSDSVKGRFTISRDNSKNTLYLQLKSLRPDDTAVYYCVGDRDYFGSGFFDHWGQGTLVTVSS
VL: DIQMTQSPSSLSASIGDRVTITCRASRHITNHLNWYQHKPGRAPKLLIYEASNLQAGVPSRFSGSGSGTDFTFTISSLQPEDFATYYCQQYDNLPPAFGGGTKVDIK
notes: IgG1; germline IGHV3-30; also called mAb SD22
B2: SD22 Fab (Fab, V domains shown)
VH: B1 VH
VL: B1 VL
notes: source: purified
B3: SD4 monoclonal antibody (human IgG1) (antibody, V domains shown)
VH: QVQLVESGGGVVQPGRSLRLSCAASGFPFSGYGMHWVRQAPGKGLEWVAVISYDGSEKNYADSVKGRFTISRDNSKNTLYLQMNSLRVEDTAVYYCAKDRDYYGSGFYDYWGQGTLVTVSS
VL: DIQMTQSPSSLSASVGDRVTITCQASQHISNHLNWYQQKPGTAPTLLIYEASNLETGVPSRFSGSGSGTDFSFTISSLRPEDFATYYCQQYDNFPLTFGPGTTMDIK
notes: also called mAb SD4
B4: SD4 Fab (Fab, V domains shown)
VH: B3 VH
VL: B3 VL
notes: source: purified
B5: SD4-X monoclonal antibody (human IgG1) (antibody, V domains shown)
VH: B3 VH with P28T, G31S, E57N, N59Y, V88A, Y108F
VL: DIQMTQSPSSLSASVGDRVTITCQASQDISNHLNWYQEKPGKVPKLLIYEASNVETGVPSRFSGSGSGTDFTFTISSLQPEDIATYYCQQYDNLPYTFGQGTKLEIK
B6: SD4-S monoclonal antibody (human IgG1) (antibody, V domains shown)
VH: B3 VH with V12L, P28T, A61G, M83I, V88T, T91R, Y103F, Y108F
VL: DIQMTQSPSSLSASVGDRVTITCQASQDITKYLNWYQQKPGKAPKLLIFEASNLETGVPSRFSGSGSGTDFTFTISSLQPEDFATYYCQQYGDFPLTFGGGTKVEIK
B7: SD12 monoclonal antibody (human IgG1) (antibody, V domains shown)
VH: EVQLLESGGGLVQPGGSLRLSCAASGFIFSSYAMSWVRQAPGKGLEWVSAISGSGGSTYYADSVKGRFTISRDNSKNTLYLQMNSLRDEDTAVYYCAKDRSYVSSGFFDDWGQGTLVTVSS
VL: B5 VL with H32Y, E38Q, K39R, V43A, Y49F, V54L, D92E, P95L
notes: IgG1; also called mAb SD12
B8: SD12 Fab (Fab, V domains shown)
VH: B7 VH
VL: B5 VL with H32Y, E38Q, K39R, V43A, Y49F, V54L, D92E, P95L
notes: source: purified

Tests used:
Details in all cases: both partners purified
[1] = target: T1, SFTSV Gn head (positions 19-337), J1 genotype (KU18-5/Japan) (SFTSV (Dabie bandavirus), strain …, strain); assay: SPR
T1 construct: source: HEK293F cells (Sino Biological), purified (HisTrap, size exclusion)

[2] = target: T2, SFTSV Gn head (positions 19-337), C2 genotype (P24-Vero_2021/China) (SFTSV (Dabie bandavirus), strain …, strain); assay: SPR
T2 construct: source: HEK293F cells (Sino Biological), purified (HisTrap, size exclusion)

[3] = target: T3, SFTSV Gn head (positions 19-337), C3 genotype (SDTA1/China) (SFTSV (Dabie bandavirus), strain SDTA1, …, UniProt A0A1S6K8S9, strain); assay: SPR
T3 construct: source: HEK293F cells (Sino Biological), purified (HisTrap, size exclusion)

[4] = target: T4, SFTSV Gn head (as crystallised with the Fabs) (SFTSV (Dabie bandavirus), strain SDTA1, …); assay: crystal structure
T4 construct: also called Gn protein

[5] = target: SFTSV Gn glycoprotein (G19-K452, C3 genotype) (SFTSV (Dabie bandavirus), strain SDTA1, …, UniProt A0A1S6K8S9, strain); assay: BLI

| Binder | Kd [1] | Kd [2] | Kd [3] | binding result [4] | further results |
| --- | --- | --- | --- | --- | --- |
| B1 | 0.0557 nM | 0.0515 nM | 0.0542 nM |  |  |
| B2 |  |  |  | binds |  |
| B3 | 0.0628 nM | 0.0321 nM | 0.0827 nM |  | Kd [5]: 0.096 nM |
| B4 |  |  |  | binds |  |
| B5 |  |  |  |  | binding result [5]: binds |
| B6 |  |  |  |  | binding result [5]: binds |
| B7 | 60.2 nM | 74.1 nM | 87.8 nM |  |  |
| B8 |  |  |  | binds |  |

Reference: publication PMC12282080, “Molecular mechanism of potently neutralizing human monoclonal antibodies against severe fever with thrombocytopenia virus infection” (Journal of Virology, 2025)
